In test [1] the target is T1, human CEA on cells (MKN45, LOVO, NCI-H2122, LS174T, CT26/CEA) (human, UniProt P06731 35-685).
T1 construct: Full-length human CEA, endogenous on tumour cell lines or transduced; also called native CEA on living cells; huCEA surface protein
T1 sequence: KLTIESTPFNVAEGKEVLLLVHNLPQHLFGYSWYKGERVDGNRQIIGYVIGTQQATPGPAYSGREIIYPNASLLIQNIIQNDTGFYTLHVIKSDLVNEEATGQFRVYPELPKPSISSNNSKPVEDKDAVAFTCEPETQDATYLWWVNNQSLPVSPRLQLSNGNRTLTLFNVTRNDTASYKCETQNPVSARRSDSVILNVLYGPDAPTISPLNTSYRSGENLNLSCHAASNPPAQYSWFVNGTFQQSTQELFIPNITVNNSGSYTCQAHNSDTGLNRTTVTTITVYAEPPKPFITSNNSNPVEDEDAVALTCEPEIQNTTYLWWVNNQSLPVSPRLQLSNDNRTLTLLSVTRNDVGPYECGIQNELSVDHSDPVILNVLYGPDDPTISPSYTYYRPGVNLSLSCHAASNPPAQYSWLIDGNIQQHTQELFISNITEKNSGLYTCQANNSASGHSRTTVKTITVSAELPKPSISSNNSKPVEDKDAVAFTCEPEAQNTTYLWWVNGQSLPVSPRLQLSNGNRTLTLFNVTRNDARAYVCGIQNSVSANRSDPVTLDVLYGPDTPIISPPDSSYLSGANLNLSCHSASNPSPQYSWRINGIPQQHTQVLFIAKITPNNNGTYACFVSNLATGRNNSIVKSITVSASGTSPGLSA
In words: flow cytometry on MKN45 cells, BGA5384 premixed with 0.50 ug/ml recombinant soluble CEA (competitor), anti-huFc-APC. The protocol: The mixtures were then incubated with 2×10^5 CEA-expressing cells, such as MKN45 cells, for 30 minutes at 4° C. The cells were stained with secondary antibody anti-huFc-APC (Cat. No. 409320, BioLegend, USA) and analyzed by flow cytometry.

Test [2] deals with T2, CEACAM7 on transiently transfected HEK293 cells (Homo sapiens (Human), UniProt Q14002 36-242).
T2 sequence: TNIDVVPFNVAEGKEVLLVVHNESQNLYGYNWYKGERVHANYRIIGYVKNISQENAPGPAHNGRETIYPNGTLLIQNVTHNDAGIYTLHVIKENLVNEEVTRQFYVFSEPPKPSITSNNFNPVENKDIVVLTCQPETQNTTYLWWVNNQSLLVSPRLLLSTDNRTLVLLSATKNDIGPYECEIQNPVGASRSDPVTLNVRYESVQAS
Description: flow cytometry on transiently transfected HEK293 cells. The protocol: (§1) Cell fluorescence was quantified using a flow cytometer (Guava easyCyte™ 8HT, Merck-Millipore, USA). For antigen ELISA, CEACAM1(SEQ ID NO:64) (Cat. No. 10822-H08H, Sino Biological, China), CHIM (SEQ ID NO:63), CEA (SEQ ID NO:55) or CEACAM6 (SEQ ID NO:57) were coated in 96-well plates at a concentration of 10 μg/ml overnight at 4° C.

Test [3] deals with T3, CEACAM3 on transiently transfected HEK293 cells (Homo sapiens (Human), UniProt P40198 35-252).
T3 sequence: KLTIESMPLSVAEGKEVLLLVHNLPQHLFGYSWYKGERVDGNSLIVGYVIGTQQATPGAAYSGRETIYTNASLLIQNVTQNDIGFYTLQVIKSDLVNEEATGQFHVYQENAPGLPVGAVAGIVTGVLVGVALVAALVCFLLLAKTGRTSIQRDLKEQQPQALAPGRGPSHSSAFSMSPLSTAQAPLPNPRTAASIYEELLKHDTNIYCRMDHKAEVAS
Described as above. How it is done: as §1

Test [4] addresses T4, CEACAM8 on transiently transfected HEK293 cells (Homo sapiens (Human), UniProt P31997 35-320).
T4 sequence: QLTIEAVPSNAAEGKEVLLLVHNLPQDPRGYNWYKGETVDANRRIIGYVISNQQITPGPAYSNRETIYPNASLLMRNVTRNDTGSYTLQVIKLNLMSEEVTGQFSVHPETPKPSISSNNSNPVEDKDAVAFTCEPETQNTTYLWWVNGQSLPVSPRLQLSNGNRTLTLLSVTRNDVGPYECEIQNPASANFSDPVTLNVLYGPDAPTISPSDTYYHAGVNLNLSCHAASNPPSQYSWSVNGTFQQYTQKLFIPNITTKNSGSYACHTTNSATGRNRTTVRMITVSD
The description is as above. How it is done:
as §1

The target in test [5] is T5, cynoCEA (Cat.:CE5-C52H5, Acrobiosystem) (cyno).
T5 chain: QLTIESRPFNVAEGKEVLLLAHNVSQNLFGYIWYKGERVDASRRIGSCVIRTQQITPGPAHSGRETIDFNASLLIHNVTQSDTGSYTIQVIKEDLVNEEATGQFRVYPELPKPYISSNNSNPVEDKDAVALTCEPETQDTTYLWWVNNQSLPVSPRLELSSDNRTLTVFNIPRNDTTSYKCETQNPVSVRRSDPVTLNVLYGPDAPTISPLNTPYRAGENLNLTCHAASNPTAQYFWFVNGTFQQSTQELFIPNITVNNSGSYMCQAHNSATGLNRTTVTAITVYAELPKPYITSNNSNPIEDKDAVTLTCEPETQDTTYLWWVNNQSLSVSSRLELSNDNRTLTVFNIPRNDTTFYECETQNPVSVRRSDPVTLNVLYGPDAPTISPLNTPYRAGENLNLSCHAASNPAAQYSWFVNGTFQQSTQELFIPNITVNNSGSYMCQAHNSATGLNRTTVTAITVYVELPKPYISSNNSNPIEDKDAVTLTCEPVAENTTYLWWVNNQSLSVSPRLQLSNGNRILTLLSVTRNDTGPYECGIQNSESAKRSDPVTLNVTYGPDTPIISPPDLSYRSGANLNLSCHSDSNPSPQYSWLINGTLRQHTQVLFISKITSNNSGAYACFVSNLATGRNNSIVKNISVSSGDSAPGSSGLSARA
In words: SPR (BIAcore T-200); antibody captured on anti-human IgG chip, antigen flowed (1.37-2150 nM). (In general: In SPR one partner is held on a chip, and binding of the other changes the refractive index at the surface.)

B1: BGA5384 (antibody, human IgG1, kappa, V domains shown)
VH: QVQLVQSGAEVKKPGASVKVSCKASGYIFTSYYLHWVRQAPGQGLEWIGYINPQTGKTSYAQKFQGRVTMTRDTSTSTVYMELSSLRSEDTAVYYCAREYGNYNYPLDYWGQGTLVTVSS
VL: DIQMTQSPSSLSASVGDRVTITCRASENQYGYLAWYQQKPGKVPKLLIYNYKNLVEGVPSRFSGSGSGTDFTLTISSLQPEDVATYYCQHHLGTPYTFGQGTKVEIKR
notes: BGA6710 with Y57K in VH; human IgG1 format; also called BGA7592-1K
In the case of B1, the half-maximal effective concentration (EC50 (read off the curve)) (in general, the concentration at which the effect is half-maximal) in test [1] is approximately 1 µg/mL. The binding result in test [2], in test [3] and in test [4] was “no binding (tested: 2 µg/ml)” throughout. The Kd (as a rule, the constant that tells how readily two partners part at equilibrium) in test [5] stood at 19.9 nM.

The record behind these values is US20250115677A1, “Anti-CEA Antibody Drug Conjugates and Methods of Use” (BeiGene Switzerland GmbH, priority 2022, published 2025).
